According to patent US7351689:

Biological target: human IL-28 receptor on transfected 293 HEK cells (IL-28 receptor alpha subunit with endogenous CRF2-4) (human)
Assay: cell-based or functional assay

Chain of human IL-28 receptor on transfected 293 HEK cells (IL-28 receptor alpha subunit with endogenous CRF2-4) (human) (Q8IU57 21-520): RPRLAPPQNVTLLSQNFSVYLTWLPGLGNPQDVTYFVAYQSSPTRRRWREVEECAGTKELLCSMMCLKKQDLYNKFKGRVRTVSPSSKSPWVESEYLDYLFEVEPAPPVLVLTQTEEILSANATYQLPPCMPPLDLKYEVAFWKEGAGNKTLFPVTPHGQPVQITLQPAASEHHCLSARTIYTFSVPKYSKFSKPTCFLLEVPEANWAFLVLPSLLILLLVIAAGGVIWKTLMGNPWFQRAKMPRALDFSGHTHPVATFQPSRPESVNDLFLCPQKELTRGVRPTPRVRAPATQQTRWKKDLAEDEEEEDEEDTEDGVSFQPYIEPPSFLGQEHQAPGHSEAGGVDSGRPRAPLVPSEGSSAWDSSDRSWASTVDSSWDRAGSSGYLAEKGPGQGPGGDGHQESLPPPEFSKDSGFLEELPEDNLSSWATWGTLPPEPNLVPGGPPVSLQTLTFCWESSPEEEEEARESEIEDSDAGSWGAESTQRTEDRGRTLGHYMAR

ISRE Signaling of Transfected 293 Cells Following Class II Cytokine Stimulation (Fold Induction), ISRE-Luc./IL-28R, HuIL10 100 ng/ml (fold induction) | ISRE Signaling of Transfected 293 Cells Following Class II Cytokine Stimulation (Fold Induction), ISRE-Luc./IL-28R, Zcyto10 125 ng/ml (fold induction) | Substance
0.5 |  | huIL10 (from UniProt P22301 19-178) (ligand)
 | 1 | zcyto10 (from UniProt Q9NYY1 25-176) (ligand)
